Reference: patent US8624010 (Amgen, dated 2014)

B1: murine B7RP1 (B7 related protein-1), membrane-bound (ligand)
chain: ETEVGAMVGSNVVLSCIDPHRRHFNLSGLYVYWQIENPEVSVTYYLPYKSPGINVDSSYKNRGHLSLDSMKQGNFSLYLKNVTPQDTQEFTCRVFMNTATELVKILEEVVRLRVAANFSTPVISTSDSSNPGQERTYTCMSKNGYPEPNLYWINTTDNSLIDTALQNNTVYLNKLGLYDVISTLRLPWTSRGDVLCCVENVALHQNITSISQAESFTGNNTKNPQETHNNELKVLVPVLAVLAAAAFVSFIIYRRTRPHRSYTGPKTVQLELTDHA
notes: also called mB7RP1; ligand for CRP1
B2: murine CRP1 (CD28 related protein-1), membrane-bound (receptor)
chain: EINGSADHRMFSFHNGGVQISCKYPETVQQLKMRLFREREVLCELTKTKGSGNAVSIKNPMLCLYHLSNNSVSFFLNNPDSSQGSYYFCSLSIFDPPPFQERNLSGGYLHIYESQLCCQLKLWLPVGCAAFVVVLLFGCILIIWFSKKKYGSSVHDPNSEYMFMAAVNTNKKSRLAGVTS
notes: also called mCRP1; receptor for B7RP1
B3: B7.2 (ligand)
chain: VSVETQAYFNGTAYLPCPFTKAQNISLSELVVFWQDQQKLVLYEHYLGTEKLDSVNAKYLGRTSFDRNNWTLRLHNVQIKDMGSYDCFIQKKPPTGSIILQQTLTELSVIANFSEPEIKLAQNVTGNSGINLTCTSKQGHPKPKKMYFLITNSTNEYGDNMQISQDNVTELFSISNSLSLSFPDGVWHMTVVCVLETESMKISSKPLNFTQEFPSPQTYWK
notes: also called CD86; B7.2-Fc; not shown: The Fc part (detected with anti-human Fc) and any linker

Assays:
[1] = target: T1, murine CRP1-Fc fusion protein (murine; human, UniProt P01857-1 96-330 = IgG part); experiment: flow cytometry on non-activated mouse splenocytes, double stain with CD45R-PE; detection with goat anti-human Fc-FITC; ligand on the cells is presumably B7RP1
T1 construct: domain: carboxy terminal 235 amino acids of the human Fc gene (isotype IgG1); Made in 293T cells and purified on Protein A. The construct encodes residues 1-147; also called mCRP1-Fc
Protocol: PE conjugated cell marker antibody to CD45R (CD45R is a B-cell marker) or isotype control antibody (rat isotype), or PBS (no stain), were added as indicated at the left side of each individual panel.
(§1) Activated spleen cells for immunostaining were washed in PBS, 0.5% BSA (Path-ocyte 4, ICN Pharmaceuticals) wash buffer, resuspended, and then aliquoted in 100 µl volumes. 15 µg/ml of either the CRP1-Fc fusion protein or the B7RP1-Fc fusion protein was added (1.5 µg/sample) as appropriate, and then the mixtures were incubated on ice for 30 min with occasional mixing. The cells were washed twice in 5.0 ml of wash buffer. Binding of the fusion proteins was visualized with 2 µg of goat-anti-human (GaHuFc-FITC) conjugated secondary antibody in a 100 µl volume for cell staining. Cell marker antibodies conjugated with PE were added with the GaHUFc-FITC, as well as control isotype-PE conjugated antibody controls where indicated (rat isotype). […]
The CRP1-Fc fusion protein was utilized to detect cells that expressed ligands to CRP1, presumably including the B7RP1 protein (see Example 8), by FACS analysis (FIG. 7). Splenocytes were prepared as in Example 8, except the 12 hr T-cell activation step was omitted and the cells were directly analyzed. […] Cells were detected that expressed both the CD45R B-cell marker and the putative ligands for CRP1, presumably including B7RP1 (Example 8).

B7.2 = target: B3; experiment: ACAS cell surface display assay, Fc fusion protein on transfected cells, FITC anti-human Fc detection
Protocol: (§2) Figure 5: FIG. 5. Interaction of CRP1-Fc and B7RP1-Fc fusion proteins with membrane-bound proteins expressed in COS-7 cells. COS-7 cells transiently transfected with pcDNA3/CRP1, pcDNA3/B7RP1, or pcDNA3 vector alone. CHO D-cells were transfected with psDRα/hCD28 and stably expressed human CD28 (hCD28). Cells expressing membrane-bound CRP1, B7RP1, or hCD28, are represented in rows as indicated at the left side of the panel. Fc fusion proteins were incubated with the plate-bound cells in columns as indicated at the top of the panel. After incubation, cells were washed, and bound Fc fusion proteins were detected using an anti-human Fc antibody and ACAS (Adherent Cell Analysis and Sorting; ACAS Ultima, Meridian Instruments, Inc., Okemos, Mich.) analysis. Figure 6A: FIG. 6. FACS (Fluorescence-Activated Cell Sorter) analysis of expression of the receptor for B7RP1 (putatively, CRP1) on activated CD4+ and CD8+ T-cells. Mouse splenocytes were activated with PMA and ionomycin for 12 hours. B7RP1-Fc fusion protein, control Fc protein (Mock-Fc), or PBS (no stain), were incubated with the cells, washed, and subsequently incubated with goat-anti-human Fc-FITC conjugated antibody(GaHuFc-FITC) as indicated at the bottom of each panel. […]

[2] = target: T2, murine B7RP1-Fc fusion protein (murine; human, UniProt P01857-1 96-330 = IgG part); experiment: flow cytometry on PMA/ionomycin-activated mouse splenocytes, lymphocyte gate; detection with goat anti-human Fc-FITC; no PE stain; receptor on the cells is putatively CRP1
T2 construct: domain: carboxy terminal 235 amino acids of the human Fc gene (isotype IgG1); Made in 293T cells and purified on Protein A. The construct encodes residues 1-269; also called mB7RP1-Fc; muB7RP1-Fc
Protocol: The B7RP1-Fc fusion protein was utilized to detect cells that expressed receptors to B7RP1, presumably including the CRP1 protein (see Example 6), by FACS analysis. Spleens were removed from female C57/Black 6 mice, ground on 100 micron mesh filters to release the lymphocytes, passed through 70 micron filters, and then washed in 50 ml of RPMI-1640. They were pelleted at 1500 rpm, resuspended in fresh RPMI, mixed to break up the clumping cells, and passed through a 40 micron filter. T-cells to be activated were seeded into 6 well plates in RPMI-1640, 5% FBS, 1×PSG, PMA, ionomycin, and incubated at 37° C., 5% CO2 overnight. T-cell activation was checked by visual confirmation after 12 hr.
as §1, with “staining.” for “staining. Cell marker antibodies conjugated with PE were added with the GaHUFc-FITC, as well as control isotype-PE conjugated antibody controls where indicated (rat isotype).”

[3] = target: B1; experiment: ACAS cell surface display assay, Fc fusion protein on transfected cells, FITC anti-human Fc detection
Protocol: as §2

B1
binding result [1]: binds

B2
binding result (B7.2): no binding | binding result [2]: binds

B3
binding result [3]: no binding
